From US7514408 come the findings set out here.

The target of the experiment is β-secretase (enzyme preparation not stated for the inhibitor assays) (human) (UniProt P56817). Nature of the experiment: cell-based or functional assay.
β-secretase (enzyme preparation not stated for the inhibitor assays) (human), sequence (P56817 46-501 limits assumed): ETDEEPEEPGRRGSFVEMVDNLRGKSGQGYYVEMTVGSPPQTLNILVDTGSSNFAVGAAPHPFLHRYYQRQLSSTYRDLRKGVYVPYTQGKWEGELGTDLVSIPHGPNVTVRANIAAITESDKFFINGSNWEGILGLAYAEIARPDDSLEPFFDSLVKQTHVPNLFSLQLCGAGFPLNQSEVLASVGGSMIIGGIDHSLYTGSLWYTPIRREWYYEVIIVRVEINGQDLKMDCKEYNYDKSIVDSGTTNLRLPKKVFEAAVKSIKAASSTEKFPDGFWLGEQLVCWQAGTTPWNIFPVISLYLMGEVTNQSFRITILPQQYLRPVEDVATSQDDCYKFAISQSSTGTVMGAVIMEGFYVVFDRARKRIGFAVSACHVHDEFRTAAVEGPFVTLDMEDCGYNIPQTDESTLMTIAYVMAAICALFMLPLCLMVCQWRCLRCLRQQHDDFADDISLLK

Turning to “Swedish mutant P13-P5′ peptide with P1′ aspartic acid replaced with a valine (D→V) (from UniProt P05067 659-676)”, the IC50 in an MBP M125 assay (inhibition of β-secretase activity) is 3 µM and the enzyme inhibition relative to the Swedish sequence is 100 times.
